According to the RNAGym collection of RNA variant scans (doi:10.1073/pnas.2313332121):

B1: TPR t1 (parent)
chain: GACCAAUCUGCCCUCAGAGCUCGAGAACAUCUUCGGAUGCAGAGGAGGCAGGCUUCGGUGGCGCGAUAGCGCCAACGUCCUCAACCUCCAAUGCAUCCCACCACAUGAUGAUGCCUGAAGAGCCUUGGUUUUUUG

Variants of: B1
Experiment: polymerase ribozyme fitness, log enrichment relative to wild type (log ratio); higher = more active; in vitro selection for triplet polymerase activity
Outline: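 A single round of triplicate in vitro selection, including frozen incubation at −7 °C, was applied to PCR-built, transcribed mutant libraries of each subunit of a heterodimeric triplet polymerase ribozyme. Illumina sequencing of input and output libraries retained genotypes with ≥10 input reads and ≥1 read per output. Fitness is the base-2 logarithm of genotype enrichment divided by wild-type enrichment, from inverse-variance-weighted replicate averages.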

| Variant | polymerase ribozyme fitness (log ratio) |
| --- | --- |
| GACCAAUCUGCCCUCAGAGCUCGAGAACAUCUUCGGAUGCAGUGGAGGCAGGCUUCGGUGGCGCGAUAGCCCCAACGUCCUCAACCUCCAAUGCAUCCCACCACAUGAUGAUGCCUGAAGAGCCUUGGUUUUUUG [A43U G71C] | -2.56 |
| GACCAAUCUGCCCUCAGAGCUCGAGAACAUCUUCGGAUGCAGUGGAGGCAGGCUUCGGUGGCGCGAUAGCGCCAACGUCCUCAACCUCCAAUGCAUCCCACCACAUGAUGAUGCCUGAAAAGCCUUGGUUUUUUG [A43U G120A] | -0.64 |
| GACCAAUCUGCCCUCAGAGCUCGAGAACAUCUUCGGAUGCAGUGGAGGCAGGCUUCGGUGGCGCGAUAGCGCCAACGUCCUCAACCUCCAAUGCAUCCCACCACAUGAUGAUGCCUGAAGAGCCUUGGUUUUUUU [A43U G135U] | -0.971 |
| GACCAAUCUGCCCUCAGAGCUCGAGAACAUCUUCGGAUGCAGAAGAGGCAGGCUUCGGUGGCGCGUUAGCGCCAAAGUCCUCAACCUCCAAUGCAUCCCACCACAUGAUGAUGCCUGAAGAGCCUUGGUUUUUUG [G44A A66U C76A] | -4.64 |
| GACCAAUCUGCCCUCAGAGCUCGAGAACAUCUUCGGAUGCAGUGGAGGCAGGCUUCGGUGGCUCGAUAGCGCCAACGUCCUCAACCUCCAAUGCAUCCCACCACAUGAUGAUGCCUGAAGAGCCUUGGUUUUUUG [A43U G63U] | -3.68 |
| GACCAAUCUGCCCUCAGAGCUCGAGAACAUCUUCGGAUGCAGUGGAGGCAGGCUUCGGUGGCGCGAUAGCGCCAACGUCCUCAACCUCCAAUGCAUCCCACCACAUGAUGAUGCCUGAACAGCCUUGGUUUAUUG [A43U G120C U132A] | 0.0679 |
| GACCAAUCUGCCCUCAGAGCUCGAGAACAUCUUCGGAUGCAGAAGAGGCAGGCUUCGGUGGCGCGAUAGCGCCAACGUCCUCAUCCUCCAAUGCAUCCCACCACAUGAUGAUGCCUGAAGAGCCUUGGUUUUUUG [G44A A84U] | -0.594 |
| GACCAAUCUGCCCUCAGAGCUCGAGAACAUCUUCGGAUGCAGUGGAGGCAGGCUUCGGUGGCGCGAUACCGCCAACGUCCUCAACCUCCAAUGCAUCCCACCACAUGAUGAUGCAUGAAGAGCUUUGGUUUUUUG [A43U G69C C115A C124U] | -3.09 |
| GACCAAUCUGCCCUCAGAGCUCGAGAACAUCUUCGGAUGCAGUGGAGGCAGGCUUCGGUGGCGCGAUAGCGCCAACGUCCUCAACCGCCAAUGCAUCCCACUACAUGAUGAUGCCUGAAGAGCCUUGGUUUUUUG [A43U U87G C102U] | -5.04 |
| GACCAAUCUGCCCUCAGAGCUCGAGAACAUCUUCGGAUGCAGUGGAGGCAGGCUACGGUGGCGCGAUAGGGCCAACGUCCUCAACCUCCAAUGCAUCCCACCACAUGAUGAAACCUGAAGAGCCUUGGUUUUUUG [A43U U55A C70G U112A G113A] | -3.91 |
| GACCAAUCUGCCCUCAGAGCUCGAGAACAUCUUCGGAUGCAGAAGAGGCAGGCUUCGGUGGCGCGAUAGCGCCAACGUCCUCAACCUCCAAUGCCUCCCACCACAUGAUGAUGCCUGAAGAGCCUUGGUUUUUUG [G44A A95C] | -1.35 |
| GACCAAUCUGCCCUCAGAGCUCGAGAACAUCUUCGGAUGCAGUGGAGGCAGGCUUCGGUGGCGCGAUAGCGCCAACGUCCUCAACCUCCAACGCAUCCCACCACAUGAUGAGGCCUGAAGAGCCUUGGUUUUUUG [A43U U92C U112G] | -2.71 |
| GACCAAUCUGCCCUCAGAGCUCGAGAACAUCUUCGGAUGCAGUGGAGGCAGGCUUCGGUGGCGCGAUAGCGCCAACGCCCUCAACCUCCAAUACAUCCCACCACAUGAUGAUGCCUGAAGAGCCUUGGUUUUUUG [A43U U78C G93A] | -1.95 |
| GACCAAUCUGCCCUCAGAGCUCGAGAACAUCUUCGGAUGCAGUGGAGGCAGGCUUCGGUGGCGCGAUAGCGCCAACGUCCUCAACCUCCAAUGCAUCCCACCACAUGAUGAGGCCUGAAGAGCCUUUGUUUUUUG [A43U U112G G127U] | -2.19 |
| GACCAAUCUGCCCUCAGAGCUCGAGAACAUCUUCGGAUGCAGAAGAGGCAGGCUUCGGUGGCGCGAUGGGGACAACGUCCUCAACCUCCAAUGCAUCCCACCACAUGAUAAUGCCUGAAGAACAUUGGUUUUUUG [G44A A68G C70G C72A G110A G122A C124A] | -7.69 |
| GACCAAUCUGCCCUCAGAGCUCGAGAACAUCUUCGGAUGCAGUGGAGGCAGGCUUCGGAGGCGCGUUAGCGCCAACGUCCUCAACCUCCAAUGCAUCCCACCACAUGAUGAUGCCUGAAGAGCCUUGGUUUUUUG [A43U U59A A66U] | -4.54 |
| GACCAAUCUGCCCUCAGAGCUCGAGAACAUCUUCGGAUGCAGAAGAGGCAGGCUUCGGUGGCGCGAUAGCGCCAUCGUCCUCAACCUCCAAUGCAUCCCACCACAUGAUGAUGCCUGGAGAGCCUUGGUUUUUUG [G44A A75U A118G] | -1.19 |
| GACCAAUCUGCCCUCAGAGCUCGAGAACAUCUUCGGAUGCAGUGGAGGCAGGCUUCGGAUGCGCGAUAGCGCCAACGUCCUCAACCUCCAAUGCAUCCCACCACAUGAUGAUGCCUGAAGAGCCUUGGUUUUUUG [A43U U59A G60U] | -1.17 |
| GACCAAUCUGCCCUCAGAGCUCGAGAACAUCUUCGGAUGCAGUGGAGGCAGGCUUCGGUGGCGCGAUAGCGCCAACGUCCUCAACCUCCAAAGCAUCCCACCACAAGAUGAUGCCUGAAGAGCCUUGGUUUUUUG [A43U U92A U106A] | -2.69 |
| GACCAAUCUGCCCUCAGAGCUCGAGAACAUCUUCGGAUGCAGUGGAGGCAGGCAUCGGUGGCGCGUUAGCGCCAACGUCCUCAACCUCCAAUGCAUCCCACCACAUGAUGAAGCCUGAAGAGCCUUGGUUUUUUG [A43U U54A A66U U112A] | -3.74 |
| GACCAAUCUGCCCUCAGAGCUCGAGAACAUCUUCGGAUGCAGUGGAGGCAGGCUUCGGUGGCGCGAUAGCGCCAACGUCCUCAACCACCAAUGCAUCCCACCACAUGAUGAUGCCUAAAGAGCCUUGGUUUUUUG [A43U U87A G117A] | -3.08 |

| Variant | polymerase ribozyme fitness (log ratio) |
| --- | --- |
| GACCAAUCUGCCCUCAGAGCUCGAGAACAUCUUCGGAUGCAGUGGAGGCAGGCUUCGGUGGCGCGAUAGCGCCAACGUCCUCAACCUCCAAUGCAUCCCACCACAUGAUGAUCCCUGAAGAGCCUUGGUUUUUUG [A43U G113C] | -3.56 |
| GACCAAUCUGCCCUCAGAGCUCGAGAACAUCUUCGGAUGCAGUGGAGGCAGGCUUCGGUGGCGCGAUAACGCCAACGUCCUCAACCUCCAAUGCAUCCCACCACAUGAUGAUGCCUGAAGAGCCUUGGUUUUUUG [A43U G69A] | -5.69 |
| GACCAAUCUGCCCUCAGAGCUCGAGAACAUCUUCGGAUGCAGUGGAGGCAGGCUUCGGUGGCGCGAUAGCGCCAACGUCCUCAACCUCCAAUGCAUCCCACCACAUGAUGAAGCCUGAAGAGCCUUGGUUUUUUG [A43U U112A] | -0.216 |
| GACCAAUCUGCCCUCAGAGCUCGAGAACAUCUUCGGAUGCAGUGGAGGCAGGCUUCGGUGGCGCGAUAGCGCCAACGUCCUCAACCUCCAAUGCAUCCCACCACAUGAUGAGGCCUGAAGAGCCUUGGUUUUUUG [A43U U112G] | -1.93 |
| GACCAAUCUGCCCUCAGAGCUCGAGAACAUCUUCGGAUGCAGUGGAGGCAGGCUUCGGUGGCGCGAUAGCGCCAACGUCCUCAACCUCCAAUGCAUCCCACCACAAGUUGAAGCCUGAAGAGCCUUGGUUUUUUG [A43U U106A A108U U112A] | -2.46 |
| GACCAAUCUGCCCUCAGAGCUCGAGAACAUCUUCGGAUGCAGUGGAGGCAGGCAUCGGUGGCGCGAUAGCGCCAACGUCCUCAACCUCCAAUGCAUCCCACCACAUGAUGAAGCCUGAAGAGCCUUGGUUUUUUG [A43U U54A U112A] | -0.639 |
| GACCAAUCUGCCCUCAGAGCUCGAGAACAUCUUCGGAUGCAGUGGAGGCAGGCUUCGGUGGCGCGAUAGCGCCAACGGCCUCAAUCUCCAAUACAUCCCACCACAUGAUGAUGCCUGAAGAGCCUUGGUUUUUUG [A43U U78G C85U G93A] | -3.01 |
| GACCAAUCUGCCCUCAGAGCUCGAGAACAUCUUCGGAUGCAGAAGAGGCAGGCUUCGGUGGCGCGAUAGCGCCAUCGUCCUCAACCUCCAAUGCAUCCCACCACAUGAUGAUGCCUGAAGAGCCUUGGUUUUUUG [G44A A75U] | -1.11 |
| GACCAAUCUGCCCUCAGAGCUCGAGAACAUCUUCGGAUGCAGUGGAGGCAGGCUUCGGCGGCGCGAUAGCGCCAACGUCCUCAACCUCCAAUGCAUCCCACCACAUGAUGAUGCCUGAAGAGCCUUGGUUUUUUG [A43U U59C] | -1.99 |
| GACCAAUCUGCCCUCAGAGCUCGAGAACAUCUUCGGAUGCAGUGGAGGCAGGCUUCGGUGGCGCGAUAGCGCCAACGUCCUCAACCUCCAAUGCAUCCCACCACAUGAUGAUGCCUGAAGAGCCUUGGAUUUUUG [A43U U129A] | -2.81 |
| GACCAAUCUGCCCUCAGAGCUCGAGAACAUCUUCGGAUGCAGAAGAGGCAGGCUUCGGUGGCGCGAUAGCGCCAACGUCCUCAACCUCCAAUGCAUCCCACCACAUGAUGAUGCCUGAAGAGCCUUGGUUUUUUG [G44A] | -0.794 |
| GACCAAUCUGCCCUCAGAGCUCGAGAACAUCUUCGGAUGCAGUGGAGGCAGGCUUCGGUGGCGCGAUAGCGCCAACGUCCACAAGCUCCAAUGCAUCCCACCACAUGAUGAUGCCUGAAGAGCCUUGGUUUUUUG [A43U U81A C85G] | -3.37 |
| GACCAAUCUGCCCUCAGAGCUCGAGAACAUCUUCGGAUGCAGUGGAGGCAGGCUUCGGUGGCGCGAUAGCGCCAACGUCCUCAACCUCCAAUUCAUCCCACCACAUGAUGAAGCCUGAAGAGCCUUCGUUUUUUG [A43U G93U U112A G127C] | -2.82 |
| GACCAAUCUGCCCUCAGAGCUCGAGAACAUCUUCGGAUGCAGUGGAGGCAGGCUUCGGUGGCGCGAUAGCGCCAACGUCCACAAGCUCCAAUGCAUCCCACCACAUGAUGAUGCCUGAAGAGCUUUGGUUUUUUG [A43U U81A C85G C124U] | -4.75 |
| GACCAAUCUGCCCUCAGAGCUCGAGAACAUCUUCGGAUGCAGAAGAGGCAGGCUUCGGUGGCGCGGUAGCGCCAACGUCCUCAACCUCCAAUGCAUCCCACCACAUGAUGAUGCCUGAAGAGCCUUGGUUUUUUG [G44A A66G] | -1.89 |
| GACCAAUCUGCCCUCAGAGCUCGAGAACAUCUUCGGAUGCAGUGGAGGCAGGCUUCGGUGGCGCGAUAGCGCCAACGUCCUCAACCUCCAAUACAUCCCACCACAUGAUGAUGCCUGACAAGCCUUGGUUUUUUG [A43U G93A A119C G120A] | -2.58 |
| GACCAAUCUGCCCUCAGAGCUCGAGAACAUCUUCGGAUGCAGUGGAGGCAGGCUUCGGUGGCGCGAUAGCGCCAACGCCCUCAACCUCCAAUGCAUCCCACCACAUGAUGAUGCCUGAAGAGCCUUGGUUUUUUG [A43U U78C] | -1.53 |
| GACCAAUCUGCCCUCAGAGCUCGAGAACAUCUUCGGAUGCAGAAGAGGCAGGCUUCGGUGGCGCGAUAGCGCCAACGUCCUCAACCUCCUAUGCAUCCCACCACAUGAUGAUGCCUGAAGAGCCUUGGUUUUUUG [G44A A90U] | -1.45 |
| GACCAAUCUGCCCUCAGAGCUCGAGAACAUCUUCGGAUGCAGAAGAGGCAGGCUUCGGUGGCGCGGUAGCGCCAACGUCCUCAACCUCCAAUGCAUCCCACCACAUGAUGAUGCCUGAAGAGCCUUGGUUUUGUG [G44A A66G U133G] | -2.29 |
| GACCAAUCUGCCCUCAGAGCUCGAGAACAUCUUCGGAUGCAGAAGAGGCUGGCUUCGGUAGCGCGAUAGCGCCAACGUCCUCAACCUCCAAUGCAUCCCACCACAUGAUGAUGCCUGAAGAGCCUUGGUUUCUUG [G44A A50U G60A U132C] | -2.42 |
| GACCAAUCUGCCCUCAGAGCUCGAGAACAUCUUCGGAUGCAGUGGAGGCAGGCUUCGGGGGCGCGAUAGCGCCAACGUCCUCAACCUCCAAUGCAUCCCACCACAUGAUAAUGCCUGAAGAGCCUUGGUUUUUUG [A43U U59G G110A] | -5.07 |
